Legend:
[1] = molecular target: T1, ATAD3A (human protein having the amino acid sequence SEQ ID NO:6) (human, UniProt Q9NVI7 2-586, limits assumed); test: CR2361 affinity column loaded with NB4 cell lysate, elution at pH 2.7, SDS-PAGE bands identified by MALDI-MS
T1 construct: Endogenous protein from a RIPA lysate of NB4 cells; Bands of 30, 40 and 75 kDa eluted from the CR2361 column gave ATAD3A peptides; No peptides were identified from the 150 kDa band
T1 sequence: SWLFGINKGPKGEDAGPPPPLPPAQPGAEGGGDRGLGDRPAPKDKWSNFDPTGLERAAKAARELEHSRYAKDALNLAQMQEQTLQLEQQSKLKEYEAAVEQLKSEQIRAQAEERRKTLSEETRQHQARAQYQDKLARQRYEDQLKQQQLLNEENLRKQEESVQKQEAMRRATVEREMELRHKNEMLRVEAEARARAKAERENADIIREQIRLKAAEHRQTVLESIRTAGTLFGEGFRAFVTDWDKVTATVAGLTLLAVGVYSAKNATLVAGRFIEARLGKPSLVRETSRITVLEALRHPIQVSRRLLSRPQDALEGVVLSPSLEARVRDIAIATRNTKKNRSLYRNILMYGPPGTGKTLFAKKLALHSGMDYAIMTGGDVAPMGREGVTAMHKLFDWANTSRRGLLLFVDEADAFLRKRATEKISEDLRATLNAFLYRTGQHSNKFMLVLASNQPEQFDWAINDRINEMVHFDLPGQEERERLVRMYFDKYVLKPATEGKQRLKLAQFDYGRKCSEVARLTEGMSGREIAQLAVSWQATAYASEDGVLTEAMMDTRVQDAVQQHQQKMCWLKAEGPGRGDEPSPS
Experimental: In advance the IgG1s were passed over a 100 kDa ultracentrifugal device to remove incomplete small IgG fragments.
For the purification of the target antigen of CR2361, an affinity column was prepared as described above for CR2401. A cell lysate of 4*10⁹ NB4 cell was prepared in RIPA buffer, according to the method described in Example 5. The cell lysate was treated essentially as described above and applied to the negative control affinity column that was connected in series to the CR2361 affinity column and an AKTA FPLC 900. The system was equilibrated with RIPA buffer. The lysate was applied to the columns at 1 ml/min and the columns were washed with 5 column volumes of RIPA buffer, followed by a salt gradient from 150 mM NaCl to 500 mM NaCl, a wash with 5 column volumes TX-100 buffer (1% Triton X-100, 150 mM NaCl, 50 mM Tris pH 7.4, protease inhibitors (Roche)) and an elution of 5 column volumes glycine, pH 2.7, whereby after 1 column volume of elution buffer the flow through was put for 10 minutes on hold to enhance the release of immune complexes. Next, the column was washed with 5 column volumes of TX-100 buffer. The eluted fractions of 0.5 ml were neutralized with 20 μl 2 M Tris/HCl, pH 7.4, and 20 μl of the samples were run on a non-reducing SDS-PAGE Criterion gel and stained with silver stain according to standard techniques known to the skilled artisan. […]

[2] = molecular target: T2, mycATAD3A (ATAD3A with a myc tag at the 5' end) (human, UniProt Q9NVI7 2-586); test: immunoprecipitation from lysate of transfected HEK293T cells, immunoblot with anti-myc
T2 construct: Expressed in transfected HEK293T cells and immunoprecipitated from a 1% Triton X-100 lysate; also called 5' myc-tagged ATAD3A
T2 sequence: T1 sequence

[3] = molecular target: T3, ATAD3Amyc (ATAD3A with a myc tag at the 3' end) (human, UniProt Q9NVI7 1-586); test: as above
T3 construct: Expressed in transfected HEK293T cells and immunoprecipitated from a 1% Triton X-100 lysate; also called 3' myc-tagged ATAD3A; not shown: C-terminal myc tag, in frame from vector pcDNA3.1/hismycA
T3 sequence: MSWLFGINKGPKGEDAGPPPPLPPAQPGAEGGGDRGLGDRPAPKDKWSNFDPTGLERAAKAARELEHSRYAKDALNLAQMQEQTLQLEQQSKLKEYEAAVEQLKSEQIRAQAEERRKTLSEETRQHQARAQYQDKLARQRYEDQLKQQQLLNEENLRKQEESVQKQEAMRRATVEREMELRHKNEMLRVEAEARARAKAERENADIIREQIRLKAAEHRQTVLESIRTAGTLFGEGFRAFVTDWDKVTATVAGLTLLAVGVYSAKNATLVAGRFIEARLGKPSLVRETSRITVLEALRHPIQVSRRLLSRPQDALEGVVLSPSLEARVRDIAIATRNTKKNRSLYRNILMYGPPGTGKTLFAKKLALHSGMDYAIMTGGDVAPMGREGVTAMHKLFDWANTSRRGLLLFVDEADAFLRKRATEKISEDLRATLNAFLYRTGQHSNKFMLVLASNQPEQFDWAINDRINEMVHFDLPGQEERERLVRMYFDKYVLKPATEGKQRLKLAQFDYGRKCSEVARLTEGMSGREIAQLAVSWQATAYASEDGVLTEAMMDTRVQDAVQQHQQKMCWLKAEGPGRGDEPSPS

Measured: binding result

B1: CR2361 IgG1 (antibody, V domains shown)
VH: EVQLVESGGGLVQPGRSLRLSCAASGFTFDDYGMSWVRQAPGKGLEWVSLISWDGGSTYYADSVKGRFTISRDNSKNSLYLQMNSLRAEDTAVYYCAKWAPSHSFDYWGQGTLVTVSS
VL: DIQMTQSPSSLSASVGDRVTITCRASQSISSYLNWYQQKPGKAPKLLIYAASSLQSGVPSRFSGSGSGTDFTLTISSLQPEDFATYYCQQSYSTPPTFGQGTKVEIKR
notes: also called IgG1 CR2361; CR24361 (apparent misprint)
binds: all assays above

— patent US20100297153A1 (CRUCELL HOLLAND B V, published 2010)
